The test has as its system 5-hydroxy-2-oxopentanoate. Nature of the test: Enzyme assay, decarboxylase (step A5), aldehyde dehydrogenase linked reaction. In kind it is biochemical. Further details: key: +: measureable activity detected in the assay; −: no measurable activity detected in the assay. Conditions: BDO biosynthetic pathway step A5. The protocol: Enzyme expression and crude lysate preparation. The enzymatic activity of each candidate enzyme is evaluated, first in E. coli and subsequently in C. glutamicum. It will be apparent to one of skill in the art that the expression and lysate preparations may need to be modified depending on the host cell and recombinant gene of interest.
E. coli: E. coli strains transformed with expression clones, for example, pUC18 or MB4124 based clones having a medium strong constitutive promoter regulating the recombinant gene of interest, are grown aerobically in LB medium (Difco) containing the appropriate antibiotic(s). At an OD600 of 0.5, IPTG is added to a final concentration of 0.25 mM. The cultures are grown to a final OD600 of 1.5 at which time the cells are collected and harvested by centrifugation. Cell pellets are resuspended in BugBuster (Novagen) reagent containing benzonase and lysozyme. Alternatively, E. coli strains transformed with expression clones, are grown overnight aerobically at 37° C. in BHI containing the appropriate antibiotic(s). 300 μL of fresh overnight culture is used to inoculate 2.7 mL BHI containing 0.25 mM IPTG and the appropriate antibiotic. The cultures are grown aerobically for 4-5 hours at 37° C. at which time the cells are collected and harvested by centrifugation. Cell pellets are frozen at −80° C. for at least 15 minutes, then thawed and resuspended in BugBuster (Novagen) reagent. Lysis and lysate collection are performed according to the manufacturer's instructions and, for example, may involve use of a sonicator and/or French press. Cleared lysates are stored on ice until enzyme assays are performed.
C. glutamicum: C. glutamicum strains transformed with MB4124 expression clones containing the recombinant gene of interest are grown aerobically in BHI broth supplemented with the proper antibiotic(s). At an OD600 of 0.5, IPTG is added to a final concentration of 0.25 mM. The cultures are grown to a final OD600 of 1.5 at which time the cells are collected and harvested by centrifugation. The pellet is washed once in one volume of water and resuspended in lysis buffer (1.0 ml 1.0 M HEPES buffer, pH 7.5, 0.5 ml 1M KOH, 10 μl 0.5M EDTA, protease inhibitor cocktail, water to 5 ml; the final pH will vary depending on the individual enzyme being tested) and one volume of 0.1 mm acid washed glass beads. The mixture is repeatedly alternately vortexed and held on ice for 15 seconds, eight times. After centrifugation for 5 min at 4,000 rpm, the supernatant lysate is removed and respun for 20 min at 10,000 rpm. Alternatively, C. glutamicum strains transformed with MB4124 expression clones containing the recombinant gene of interest are grown aerobically overnight in BHI broth supplemented with the proper antibiotic(s). Five mL of fresh overnight culture is used to inoculate 200 mL BHI containing 0.25 mM IPTG and the appropriate antibiotic. The cultures are grown aerobically at 30° C. for 5-7 hours at which time the cells are collected and harvested by centrifugation at 4° C. The pellet is resuspended in 15 mL ice cold 39 mM KH2PO4, 61 mM K2HPO4, 0.5 M KCl and lysed using a BioSpec BeadBeater and following the manufacturer's instructions. The lysate is centrifuged at 16,000 RPM at 4° C. for 30 minutes and the supernatant retained on ice as the extract.
Protein Assays. Protein concentrations in lysates are determined according to the methods of Bradford et al. (Anal. Biochem. 72:248-254 [1976]) or by the method of Smith et al. (Anal. Biochem. 150(1):76-85 [1985]) and lysates are assayed according to the methods below.
Enzyme Assays. Enzyme assays are performed on the cell lysates prepared above. The activity for each recombinant enzyme is compared to a lysate from a vector only control culture which is generated in a fashion identical to the recombinant enzyme lysate. […]

We go through 7 molecules from US20110014669A1, “Production of 1,4 Butanediol in a Microorganism” (Microbia, Inc., priority 2009, published 2011).

B1: MenDEc: Enzyme candidate for BDO biosynthetic pathway step A5, SEQ ID NO. 65 (protein, listed as Escherichia coli)
chain: MSVSAFNRRWAAVILEALTRHGVRHICIAPGSRSTPLTLAAAENSAFIHHTHFDERGLGHLALGLAKVSKQPVAVIVTSGTAVANLYPALIEAGLTGEKLILLTADRPPELIDCGANQAIRQPGMFASHPTHSISLPRPTQDIPARWLVSTIDHALGTLHAGGVHINCPFAEPLYGEMDDTGLSWQQRLGDWWQDDKPWLREAPRLESEKQRDWFFWRQKRGVVVAGRMSAEEGKKVALWAQTLGWPLIGDVLSQTGQPLPCADLWLGNAKATSELQQAQIVVQLGSSLTGKRLLQWQASCEPEEYWIVDDIEGRLDPAHHRGRRLIANIADWLELHPAEKRQPWCVEIPRLAEQAMQAVIARRDAFGEAQLAHRICDYLPEQGQLFVGNSLVVRLIDALSQLPAGYPVYSNRGASGIDGLLSTAAGVQRASGKPTLAIVGDLSALYDLNALALLRQVSAPLVLIVVNNNGGQIFSLLPTPQSERERFYLMPQNVHFEHAAAMFELKYHRPQNWQELETAFADAWRTPTTTVIEMVVNDTDGAQTLQQLLAQVSHL
With B1, the “Enzyme Assay” value is given as “−”.

B2: SpeFEc: Enzyme candidate for BDO biosynthetic pathway step A5, SEQ ID NO. 63 (protein, listed as Escherichia coli)
chain: MSKLKIAVSDSCPDCFTTQRECIYINESRNIDVAAIVLSLNDVTCGKLDEIDATGYGIPVFIATENQERVPAEYLPRISGVFENCESRREFYGRQLETAASHYETQLRPPFFRALVDYVNQGNSAFDCPGHQGGEFFRRHPAGNQFVEYFGEALFRADLCNADVAMGDLLIHEGAPCIAQQHAAKVFNADKTYFVLNGTSSSNKVVLNALLTPGDLVLFDRNNHKSNHHGALLQAGATPVYLETARNPYGFIGGIDAHCFEESYLRELIAEVAPQRAKEARPFRLAVIQLGTYDGTIYNARQVVDKIGHLCDYILFDSAWVGYEQFIPMMADCSPLLLDLNENDPGILVTQSVHKQQAGFSQTSQIHKKDSHIKGQQRYVPHKRMNNAFMMHASTSPFYPLFAALNINAKMHEGVSGRNMWMDCVVNGINARKLILDNCQHIRPFVPELVDGKPWQSYETAQIAVDLRFFQFVPGEHWHSFEGYAENQYFVDPCKLLLTTPGIDARNGEYEAFGVPATILANFLRENGVVPEKCDLNSILFLLTPAEDMAKLQQLVALLVRFEKLLESDAPLAEVLPSIYKQHEERYAGYTLRQLCQEMHDLYARHNVKQLQKEMFRKEHFPRVSMNPQEANYAYLRGEVELVRLPDAEGRIAAEGALPYPPGVLCVVPGEIWGGAVLRYFSALEEGINLLPGFAPELQGVYIEEHDGRKQVWCYVIKPRDAQSTLLKGEKL
On to B2, for which the “Enzyme Assay” value is given as “−”.

B3: GadBEc: Enzyme candidate for BDO biosynthetic pathway step A5, SEQ ID NO. 64 (protein, listed as Escherichia coli)
chain: MDKKQVTDLRSELLDSRFGAKSISTIAESKRFPLHEMRDDVAFQIINDELYLDGNARQNLATFCQTWDDENVHKLMDLSINKNWIDKEEYPQSAAIDLRCVNMVADLWHAPAPKNGQAVGTNTIGSSEACMLGGMAMKWRWRKRMEAAGKPTDKPNLVCGPVQICWHKFARYWDVELREIPMRPGQLFMDPKRMIEACDENTIGVVPTFGVTYTGNYEFPQPLHDALDKFQADTGIDIDMHIDAASGGFLAPFVAPDIVWDFRLPRVKSISASGHKFGLAPLGCGWVIWRDEEALPQELVFNVDYLGGQIGTFAINFSRPAGQVIAQYYEFLRLGREGYTKVQNASYQVAAYLADEIAKLGPYEFICTGRPDEGIPAVCFKLKDGEDPGYTLYDLSERLRLRGWQVPAFTLGGEATDIVVMRIMCRRGFEMDFAELLLEDYKASLKYLSDHPKLQGIAQQNSFKHT
With B3, the “Enzyme Assay” value was “−”.

B4: PanDEc: Enzyme candidate for BDO biosynthetic pathway step A5, SEQ ID NO. 61 (protein, listed as Escherichia coli)
chain: MIRTMLQGKLHRVKVTHADLHYEGSCAIDQDFLDAAGILENEAIDIWNVTNGKRFSTYAIAAERGSRIISVNGAAAHCASVGDIVIIASFVTMPDEEARTWRPNVAYFEGDNEMKRTAKAIPVQVA
As for B4, the “Enzyme Assay” value is “−”.

B5: PoxBEc: Enzyme candidate for BDO biosynthetic pathway step A5, SEQ ID NO. 60 (protein, listed as Escherichia coli)
chain: MKQTVAAYIAKTLESAGVKRIWGVTGDSLNGLSDSLNRMGTIEWMSTRHEEVAAFAAGAEAQLSGELAVCAGSCGPGNLHLINGLFDCHRNHVPVLAIAAHIPSSEIGSGYFQETHPQELFRECSHYCELVSSPEQIPQVLAIAMRKAVLNRGVSVVVLPGDVALKPAPEGATMHWYHAPQPVVTPEEEELRKLAQLLRYSSNIALMCGSGCAGAHKELVEFAGKIKAPIVHALRGKEHVEYDNPYDVGMTGLIGFSSGFHTMMNADTLVLLGTQFPYRAFYPTDAKIIQIDINPASIGAHSKVDMALVGDIKSTLRALLPLVEEKADRKFLDKALEDYRDARKGLDDLAKPSEKAIHPQYLAQQISHFAADDAIFTCDVGTPTVWAARYLKMNGKRRLLGSFNHGSMANAMPQALGAQATEPERQVVAMCGDGGFSMLMGDFLSVVQMKLPVKIVVFNNSVLGFVAMEMKAGGYLTDGTELHDTNFARIAEACGITGIRVEKASEVDEALQRAFSIDGPVLVDVVVAKEELAIPPQIKLEQAKGFSLYMLRAIISGRGDEVIELAKTNWLR
As to B5, the “Enzyme Assay” value is reported as “−”.

B6: YeaUEc: Enzyme candidate for BDO biosynthetic pathway step A5, SEQ ID NO. 59 (protein, listed as Escherichia coli)
chain: MMKTMRIAAIPGDGIGKEVLPEGIRVLQAAAERWGFALSFEQMEWASCEYYSHHGKMMPDDWHEQLSRFDAIYFGAVGWPDTVPDHISLWGSLLKFRREFDQYVNLRPVRLFPGVPCPLAGKQPGDIDFYVVRENTEGEYSSLGGRVNEGTEHEVVIQESVFTRRGVDRILRYAFELAQSRPRKTLTSATKSNGLAISMPYWDERVEAMAENYPEIRWDKQHIDILCARFVMQPERFDVVVASNLFGDILSDLGPACTGTIGIAPSANLNPERTFPSLFEPVHGSAPDIYGKNIANPIATIWAGAMMLDFLGNGDERFQQAHNGILAAIEEVIAHGPKTPDMKGNATTPQVADAICKIILR
With B6, the “Enzyme Assay” value was “−”.

B7: LdcCEc: Enzyme candidate for BDO biosynthetic pathway step A5, SEQ ID NO. 62 (protein, listed as Escherichia coli)
chain: MNIIAIMGPHGVFYKDEPIKELESALVAQGFQIIWPQNSVDLLKFIEHNPRICGVIFDWDEYSLDLCSDINQLNEYLPLYAFINTHSTMDVSVQDMRMALWFFEYALGQAEDIAIRMRQYTDEYLDNITPPFTKALFTYVKERKYTFCTPGHMGGTAYQKSPVGCLFYDFFGGNTLKADVSISVTELGSLLDHTGPHLEAEEYIARTFGAEQSYIVTNGTSTSNKIVGMYAAPSGSTLLIDRNCHKSLAHLLMMNDVVPVWLKPTRNALGILGGIPRREFTRDSIEEKVAATTQAQWPVHAVITNSTYDGLLYNTDWIKQTLDVPSIHFDSAWVPYTHFHPIYQGKSGMSGERVAGKVIFETQSTHKMLAALSQASLIHIKGEYDEEAFNEAFMMHTTTSPSYPIVASVETAAAMLRGNPGKRLINRSVERALHFRKEVQRLREESDGWFFDIWQPPQVDEAECWPVAPGEQWHGFNDADADHMFLDPVKVTILTPGMDEQGNMSEEGIPAALVAKFLDERGIVVEKTGPYNLLFLFSIGIDKTKAMGLLRGLTEFKRSYDLNLRIKNMLPDLYAEDPDFYRNMRIQDLAQGIHKLIRKHDLPGLMLRAFDTLPEMIMTPHQAWQRQIKGEVETIALEQLVGRVSANMILPYPPGVPLLMPGEMLTKESRTVLDFLLMLCSVGQHYPGFETDIHGAKQDEDGVYRVRVLKMAG
Take B7: the “Enzyme Assay” value was “−”.
